Experiments:
HeLa Kyoto [1] = test: solubility change mitosis vs G1/S (difference of NP-40 vs SDS log2 ratios) (log2 ratio difference); higher = more soluble in mitosis
HeLa Kyoto [2] = test: solubility in G1/S (NP-40 vs SDS abundance) (log2 ratio); higher = more soluble; settings: cell cycle stage: G1/S
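Wherever solubility change mitosis vs G1/S (difference of NP-40 vs SDS log2 ratios) is given: synchronized HeLa Kyoto cells (double thymidine block for G1/S, nocodazole release for mitosis), protein amounts in NP-40 versus SDS lysates quantified by mass spectrometry, three biological replicates.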
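Wherever solubility in G1/S (NP-40 vs SDS abundance) is given: HeLa Kyoto cells arrested at G1/S by double thymidine block, proteins quantified by TMT10plex mass spectrometry in mild NP-40 versus SDS extracts, three biological replicates.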

Sequence	solubility change mitosis (log2) (HeLa Kyoto [1])	solubility in G1/S (log2) (HeLa Kyoto [2])
MNSSSANITYASRKRRKPVQKTVKPIPAEGIKSNPSKRHRDRLNTELDRLASLLPFPQDVINKLDKLSVLRLSVSYLRAKSFFDVALKSSPTERNGGQDNCRAANFREGLNLQEGEFLLQALNGFVLVVTTDALVFYASSTIQDYLGFQQSDVIHQSVYELIHTEDRAEFQRQLHWALNPSQCTESGQGIEEATGLPQTVVCYNPDQIPPENSPLMERCFICRLRCLLDNSSGFLAMNFQGKLKYLHGQKKKGKDGSILPPQLALFAIATPLQPPSILEIRTKNFIFRTKHKLDFTPIGCDAKGRIVLGYTEAELCTRGSGYQFIHAADMLYCAESHIRMIKTGESGMIVFRLLTKNNRWTWVQSNARLLYKNGRPDYIIVTQRPLTDEEGTEHLRKRNTKLPFMFTTGEAVLYEATNPFPAIMDPLPLRTKNGTSGKDSATTSTLSKDSLNPSSLLAAMMQQDESIYLYPASSTSSTAPFENNFFNESMNECRNWQDNTAPMGNDTILKHEQIDQPQDVNSFAGGHPGLFQDSKNSDLYSIMKNLGIDFEDIRHMQNEKFFRNDFSGEVDFRDIDLTDEILTYVQDSLSKSPFIPSDYQQQQSLALNSSCMVQEHLHLEQQQQHHQKQVVVEPQQQLCQKMKHMQVNGMFENWNSNQFVPFNCPQQDPQQYNVFTDLHGISQEFPYKSEMDSMPYTQNFISCNQPVLPQHSKCTELDYPMGSFEPSPYPTTSSLEDFVTCLQLPENQKHGLNPQSAIITPQTCYAGAVSMYQCQPEPQHTHVGQMQYNPVLPGQQAFLNKFQNGVLNETYPAELNNINNTQTTTHLQPLHHPSEARPFPDLTSSGFL [AHR]	-0.105	-0.135
MNYPGRGSPRSPEHNGRGGGGGAWELGSDARPAFGGGVCCFEHLPGGDPDDGDVPLALLRGEPGLHLAPGTDDHNHHLALDPCLSDENYDFSSAESGSSLRYYSEGESGGGGSSLSLHPPQQPPLVPTNSGGGGATGGSPGERKRTRLGGPAARHRYEVVTELGPEEVRWFYKEDKKTWKPFIGYDSLRIELAFRTLLQTTGARPQGGDRDGDHVCSPTGPASSSGEDDDEDRACGFCQSTTGHEPEMVELVNIEPVCVRGGLYEVDVTQGECYPVYWNQADKIPVMRGQWFIDGTWQPLEEEESNLIEQEHLNCFRGQQMQENFDIEVSKSIDGKDAVHSFKLSRNHVDWHSVDEVYLYSDATTSKIARTVTQKLGFSKASSSGTRLHRGYVEEATLEDKPSQTTHIVFVVHGIGQKMDQGRIIKNTAMMREAARKIEERHFSNHATHVEFLPVEWRSKLTLDGDTVDSITPDKVRGLRDMLNSSAMDIMYYTSPLYRDELVKGLQQELNRLYSLFCSRNPDFEEKGGKVSIVSHSLGCVITYDIMTGWNPVRLYEQLLQKEEELPDERWMSYEERHLLDELYITKRRLKEIEERLHGLKASSMTQTPALKFKVENFFCMGSPLAVFLALRGIRPGNTGSQDHILPREICNRLLNIFHPTDPVAYRLEPLILKHYSNISPVQIHWYNTSNPLPYEHMKPSFLNPAKEPTSVSENEGISTIPSPVTSPVLSRRHYGESITNIGKASILGAASIGKGLGGMLFSRFGRSSTTQSSETSKDSMEDEKKPVASPSATTVGTQTLPHSSSGFLDSAYFRLQESFFNLPQLLFPENVMQNKDNALVELDHRIDFELREGLVESRYWSAVTSHTAYWSSLDVALFLLTFMYKHEHDDDAKPNLDPI [DDHD1]	0.134	-0.175
MPALACLRRLCRHVSPQAVLFLLFIFCLFSVFISAYYLYGWKRGLEPSADAPEPDCGDPPPVAPSRLLPLKPVQAATPSRTDPLVLVFVESLYSQLGQEVVAILESSRFKYRTEIAPGKGDMPTLTDKGRGRFALIIYENILKYVNLDAWNRELLDKYCVAYGVGIIGFFKANENSLLSAQLKGFPLFLHSNLGLKDCSINPKSPLLYVTRPSEVEKGVLPGEDWTVFQSNHSTYEPVLLAKTRSSESIPHLGADAGLHAALHATVVQDLGLHDGIQRVLFGNNLNFWLHKLVFVDAVAFLTGKRLSLPLDRYILVDIDDIFVGKEGTRMKVEDVKALFDTQNELRAHIPNFTFNLGYSGKFFHTGTNAEDAGDDLLLSYVKEFWWFPHMWSHMQPHLFHNQSVLAEQMALNKKFAVEHGIPTDMGYAVAPHHSGVYPVHVQLYEAWKQVWSIRVTSTEEYPHLKPARYRRGFIHNGIMVLPRQTCGLFTHTIFYNEYPGGSSELDKIINGGELFLTVLLNPISIFMTHLSNYGNDRLGLYTFKHLVRFLHSWTNLRLQTLPPVQLAQKYFQIFSEEKDPLWQDPCEDKRHKDIWSKEKTCDRFPKLLIIGPQKTGTTALYLFLGMHPDLSSNYPSSETFEEIQFFNGHNYHKGIDWYMEFFPIPSNTTSDFYFEKSANYFDSEVAPRRAAALLPKAKVLTILINPADRAYSWYQHQRAHDDPVALKYTFHEVITAGSDASSKLRALQNRCLVPGWYATHIERWLSAYHANQILVLDGKLLRTEPAKVMDMVQKFLGVTNTIDYHKTLAFDPKKGFWCQLLEGGKTKCLGKSKGRKYPEMDLDSRAFLKDYYRDHNIELSKLLYKMGQTLPTWLREDLQNTR [NDST1]	-0.0111	-0.0442
MPGVARLPLLLGLLLLPRPGRPLDLADYTYDLAEEDDSEPLNYKDPCKAAAFLGDIALDEEDLRAFQVQQAVDLRRHTARKSSIKAAVPGNTSTPSCQSTNGQPQRGACGRWRGRSRSRRAATSRPERVWPDGVIPFVIGGNFTGSQRAVFRQAMRHWEKHTCVTFLERTDEDSYIVFTYRPCGCCSYVGRRGGGPQAISIGKNCDKFGIVVHELGHVVGFWHEHTRPDRDRHVSIVRENIQPGQEYNFLKMEPQEVESLGETYDFDSIMHYARNTFSRGIFLDTIVPKYEVNGVKPPIGQRTRLSKGDIAQARKLYKCPACGETLQDSTGNFSSPEYPNGYSAHMHCVWRISVTPGEKIILNFTSLDLYRSRLCWYDYVEVRDGFWRKAPLRGRFCGSKLPEPIVSTDSRLWVEFRSSSNWVGKGFFAVYEAICGGDVKKDYGHIQSPNYPDDYRPSKVCIWRIQVSEGFHVGLTFQSFEIERHDSCAYDYLEVRDGHSESSTLIGRYCGYEKPDDIKSTSSRLWLKFVSDGSINKAGFAVNFFKEVDECSRPNRGGCEQRCLNTLGSYKCSCDPGYELAPDKRRCEAACGGFLTKLNGSITSPGWPKEYPPNKNCIWQLVAPTQYRISLQFDFFETEGNDVCKYDFVEVRSGLTADSKLHGKFCGSEKPEVITSQYNNMRVEFKSDNTVSKKGFKAHFFSDKDECSKDNGGCQQDCVNTFGSYECQCRSGFVLHDNKHDCKEAGCDHKVTSTSGTITSPNWPDKYPSKKECTWAISSTPGHRVKLTFMEMDIESQPECAYDHLEVFDGRDAKAPVLGRFCGSKKPEPVLATGSRMFLRFYSDNSVQRKGFQASHATECGGQVRADVKTKDLYSHAQFGDNNYPGGVDCEWVIVAEEGYGVELVFQTFEVEEETDCGYDYMELFDGYDSTAPRLGRYCGSGPPEEVYSAGDSVLVKFHSDDTITKKGFHLRYTSTKFQDTLHSRK [BMP1]	-0.301	-0.299
MPKIVLNGVTVDFPFQPYKCQQEYMTKVLECLQQKVNGILESPTGTGKTLCLLCTTLAWREHLRDGISARKIAERAQGELFPDRALSSWGNAAAAAGDPIACYTDIPKIIYASRTHSQLTQVINELRNTSYRPKVCVLGSREQLCIHPEVKKQESNHLQIHLCRKKVASRSCHFYNNVEEKSLEQELASPILDIEDLVKSGSKHRVCPYYLSRNLKQQADIIFMPYNYLLDAKSRRAHNIDLKGTVVIFDEAHNVEKMCEESASFDLTPHDLASGLDVIDQVLEEQTKAAQQGEPHPEFSADSPSPGLNMELEDIAKLKMILLRLEGAIDAVELPGDDSGVTKPGSYIFELFAEAQITFQTKGCILDSLDQIIQHLAGRAGVFTNTAGLQKLADIIQIVFSVDPSEGSPGSPAGLGALQSYKVHIHPDAGHRRTAQRSDAWSTTAARKRGKVLSYWCFSPGHSMHELVRQGVRSLILTSGTLAPVSSFALEMQIPFPVCLENPHIIDKHQIWVGVVPRGPDGAQLSSAFDRRFSEECLSSLGKALGNIARVVPYGLLIFFPSYPVMEKSLEFWRARDLARKMEALKPLFVEPRSKGSFSETISAYYARVAAPGSTGATFLAVCRGKASEGLDFSDTNGRGVIVTGLPYPPRMDPRVVLKMQFLDEMKGQGGAGGQFLSGQEWYRQQASRAVNQAIGRVIRHRQDYGAVFLCDHRFAFADARAQLPSWVRPHVRVYDNFGHVIRDVAQFFRVAERTMPAPAPRATAPSVRGEDAVSEAKSPGPFFSTRKAKSLDLHVPSLKQRSSGSPAAGDPESSLCVEYEQEPVPARQRPRGLLAALEHSEQRAGSPGEEQAHSCSTLSLLSEKRPAEEPRGGRKKIRLVSHPEEPVAGAQTDRAKLFMVAVKQELSQANFATFTQALQDYKGSDDFAALAACLGPLFAEDPKKHNLLQGFYQFVRPHHKQQFEEVCIQLTGRGCGYRPEHSIPRRQRAQPVLDPTGRTAPDPKLTVSTAAAQQLDPQEHLNQGRPHLSPRPPPTGDPGSQPQWGSGVPRAGKQGQHAVSAYLADARRALGSAGCSQLLAALTAYKQDDDLDKVLAVLAALTTAKPEDFPLLHRFSMFVRPHHKQRFSQTCTDLTGRPYPGMEPPGPQEERLAVPPVLTHRAPQPGPSRSEKTGKTQSKISSFLRQRPAGTVGAGGEDAGPSQSSGPPHGPAASEWGL [RTEL1]	-0.104	-0.0713
MPPQLQETRMNRSIPVEVDESEPYPSQLLKPIPEYSPEEESEPPAPNIRNMAPNSLSAPTMLHNSSGDFSQAHSTLKLANHQRPVSRQVTCLRTQVLEDSEDSFCRRHPGLGKAFPSGCSAVSEPASESVVGALPAEHQFSFMEKRNQWLVSQLSAASPDTGHDSDKSDQSLPNASADSLGGSQEMVQRPQPHRNRAGLDLPTIDTGYDSQPQDVLGIRQLERPLPLTSVCYPQDLPRPLRSREFPQFEPQRYPACAQMLPPNLSPHAPWNYHYHCPGSPDHQVPYGHDYPRAAYQQVIQPALPGQPLPGASVRGLHPVQKVILNYPSPWDHEERPAQRDCSFPGLPRHQDQPHHQPPNRAGAPGESLECPAELRPQVPQPPSPAAVPRPPSNPPARGTLKTSNLPEELRKVFITYSMDTAMEVVKFVNFLLVNGFQTAIDIFEDRIRGIDIIKWMERYLRDKTVMIIVAISPKYKQDVEGAESQLDEDEHGLHTKYIHRMMQIEFIKQGSMNFRFIPVLFPNAKKEHVPTWLQNTHVYSWPKNKKNILLRLLREEEYVAPPRGPLPTLQVVPL [TRAF3IP2]	0.168	-0.199
MPVHSRGDKKETNHHDEMEVDYAENEGSSSEDEDTESSSVSEDGDSSEMDDEDCERRRMECLDEMSNLEKQFTDLKDQLYKERLSQVDAKLQEVIAGKAPEYLEPLATLQENMQIRTKVAGIYRELCLESVKNKYECEIQASRQHCESEKLLLYDTVQSELEEKIRRLEEDRHSIDITSELWNDELQSRKKRKDPFSPDKKKPVVVSGPYIVYMLQDLDILEDWTTIRKAMATLGPHRVKTEPPVKLEKHLHSARSEEGRLYYDGEWYIRGQTICIDKKDECPTSAVITTINHDEVWFKRPDGSKSKLYISQLQKGKYSIKHS [BRMS1L]	-0.0561	-0.0165
MQVPQDGEDLAGQPWYHGLLSRQKAEALLQQNGDFLVRASGSRGGNPVISCRWRGSALHFEVFRVALRPRPGRPTALFQLEDEQFPSIPALVHSYMTGRRPLSQATGAVVSRPVTWQGPLRRSFSEDTLMDGPARIEPLRARKWSNSQPADLAHMGRSREDPAGMEASTMPISALPRTSSDPVLLKAPAPLGTVADSLRASDGQLQAKAPTKPPRTPSFELPDASERPPTYCELVPRVPSVQGTSPSQSCPEPEAPWWEAEEDEEEENRCFTRPQAEISFCPHDAPSCLLGPQNRPLEPQVLHTLRGLFLEHHPGSTALHLLLVDCQATGLLGVTRDQRGNMGVSSGLELLTLPHGHHLRLELLERHQTLALAGALAVLGCSGPLEERAAALRGLVELALALRPGAAGDLPGLAAVMGALLMPQVSRLEHTWRQLRRSHTEAALAFEQELKPLMRALDEGAGPCDPGEVALPHVAPMVRLLEGEEVAGPLDESCERLLRTLHGARHMVRDAPKFRKVAAQRLRGFRPNPELREALTTGFVRRLLWGSRGAGAPRAERFEKFQRVLGVLSQRLEPDR [SH2D3A]	0.0323	0.386

From the supplement of paper PMC5998384
